Among the data in article PMC11726454 are Kd values, retold here.

A word on the Kd: it is a measure of binding affinity in units of concentration.

The experiment deals with TLR4 human recombinant protein (HY-P73586, MCE) (human) (UniProt O00206). The experiment is described as follows: SPR. (In general: Surface plasmon resonance follows binding to a sensor surface in real time, without labels.)
Sequence of UniProt O00206 (O00206 24-631, one chain of several): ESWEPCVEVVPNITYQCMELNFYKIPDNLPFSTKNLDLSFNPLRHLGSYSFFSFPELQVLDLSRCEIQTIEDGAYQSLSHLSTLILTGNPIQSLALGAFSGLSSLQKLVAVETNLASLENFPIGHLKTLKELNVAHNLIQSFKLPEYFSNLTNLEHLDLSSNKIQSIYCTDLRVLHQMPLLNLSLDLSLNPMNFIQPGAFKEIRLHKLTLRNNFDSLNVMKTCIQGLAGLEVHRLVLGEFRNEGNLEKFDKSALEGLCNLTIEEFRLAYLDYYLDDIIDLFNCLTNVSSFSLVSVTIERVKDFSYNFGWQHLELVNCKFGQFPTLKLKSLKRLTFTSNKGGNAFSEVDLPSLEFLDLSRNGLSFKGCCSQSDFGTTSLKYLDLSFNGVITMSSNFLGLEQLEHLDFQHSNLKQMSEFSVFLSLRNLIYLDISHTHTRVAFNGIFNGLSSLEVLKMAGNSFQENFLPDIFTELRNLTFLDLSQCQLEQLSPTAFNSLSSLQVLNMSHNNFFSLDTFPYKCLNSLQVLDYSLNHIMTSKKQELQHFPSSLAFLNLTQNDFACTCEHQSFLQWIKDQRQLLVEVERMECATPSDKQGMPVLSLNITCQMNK

As for “PBP1B without the GST tag, non-transmembrane domain (domain or fragment)”, the Kd came out at 0.269 nM.
